Measured values taken from publication doi:10.1101/2023.12.21.572875, “Structure of the human systemic RNAi defective transmembrane protein 1 (hSIDT1) reveals the conformational flexibility of its lipid binding domain” (bioRxiv, 2024).

Molecular target: the molecule itself
Experiment: cryo-EM structure; single-particle cryo-EM of purified hSIDT1-GFP at 1 mg/ml in 0.5% digitonin, 25 mM Tris-HCl pH 7.5, 200 mM NaCl, with 100 uM fluorinated octyl-maltoside; no cholesterol or analogues; blotted at 18°C; C2 symmetry imposed

B1: human systemic RNAi-defective transmembrane family member 1 (hSIDT1), full length, C-terminal GFP-Strep-tag-II fusion (natural protein, UniProt Q9NXL6 20-827, looked up)
chain: ASPGHPAKSPRQPPAPRRDPFDAARGADFDHVYSGVVNLSTENIYSFNYTSQPDQVTAVRVYVNSSSENLNYPVLVVVRQQKEVLSWQVPLLFQGLYQRSYNYQEVSRTLCPSEATNETGPLQQLIFVDVASMAPLGAQYKLLVTKLKHFQLRTNVAFHFTASPSQPQYFLYKFPKDVDSVIIKVVSEMAYPCSVVSVQNIMCPVYDLDHNVEFNGVYQSMTKKAAITLQKKDFPGEQFFVVFVIKPEDYACGGSFFIQEKENQTWNLQRKKNLEVTIVPSIKESVYVKSSLFSVFIFLSFYLGCLLVGFVHYLRFQRKSIDGSFGSNDGSGNMVASHPIAASTPEGSNYGTIDESSSSPGRQMSSSDGGPPGQSDTDSSVEESDFDTMPDIESDKNIIRTKMFLYLSDLSRKDRRIVSKKYKIYFWNIITIAVFYALPVIQLVITYQTVVNVTGNQDICYYNFLCAHPLGVLSAFNNILSNLGHVLLGFLFLLIVLRRDILHRRALEAKDIFAVEYGIPKHFGLFYAMGIALMMEGVLSACYHVCPNYSNFQFDTSFMYMIAGLCMLKLYQTRHPDINASAYSAYASFAVVIMVTVLGVVFGKNDVWFWVIFSAIHVLASLALSTQIYYMGRFKIDLGIFRRAAMVFYTDCIQQCSRPLYMDRMVLLVVGNLVNWSFALFGLIYRPRDFASYMLGIFICNLLLYLAFYIIMKLRSSEKVLPVPLFCIVATAVMWAAALYFFFQNLSSWEGTPAESREKNRECILLDFFDDHDIWHFLSATALFFSFLVLLTLDDDLDVVRRDQIPVF
modifications: lacks complex N-glycosylation; density for N-acetylglucosamine at the predicted N-glycosylation sites N57, N67, N83, N136, N282 (not modelled)
notes: human SIDT1 (systemic RNAi-defective transmembrane family member 1), full length, codon-optimized synthetic gene (GenScript); UniProt Q9NXL6 printed for the AlphaFold model used in model building; Homodimer with C2 symmetry; Not modelled in the structure: the first 40 residues, cytosolic loops CL1 and CL4, Q278-N286 and the C-terminal GFP; The native signal peptide may be removed in the mature …
stoichiometry N: 2
